Measured values from paper PMC6625990 (2019).
No end group written: not given here. *: point of attachment. Biotin = O=C1N[C@H]2[C@H](CS[C@H]2CCCCC(=O)*)N1

Target: T1, bovine Ric8A1–492 (bovine, UniProt Q5E9J8 1-492)
T1 chain: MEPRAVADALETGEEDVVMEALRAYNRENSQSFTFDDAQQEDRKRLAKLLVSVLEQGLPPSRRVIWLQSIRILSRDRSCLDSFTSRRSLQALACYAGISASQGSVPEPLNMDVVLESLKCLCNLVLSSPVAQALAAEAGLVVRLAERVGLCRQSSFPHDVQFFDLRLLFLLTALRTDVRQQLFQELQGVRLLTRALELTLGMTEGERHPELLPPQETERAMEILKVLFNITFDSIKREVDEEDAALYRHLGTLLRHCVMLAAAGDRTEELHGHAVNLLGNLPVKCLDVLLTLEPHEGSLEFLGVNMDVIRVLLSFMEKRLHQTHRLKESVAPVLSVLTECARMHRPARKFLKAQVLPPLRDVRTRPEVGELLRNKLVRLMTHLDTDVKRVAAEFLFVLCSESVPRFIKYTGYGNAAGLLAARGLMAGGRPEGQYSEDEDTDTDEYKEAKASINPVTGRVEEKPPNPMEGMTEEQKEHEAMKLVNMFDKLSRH
Test: BLI

Question: How did the Kd turn out when Biotin-NDCRDIIIRMNLRQCGLF (cysteine pairing not given here) [peptide C2] was run?
Answer: 0.063 µM

Question: How did the Kd turn out when Biotin-NDCRDIIQRMHLRQYELL [Gαs363–380] was run?
Answer: 4.4 µM

Question: With Biotin-NDCRDIIQRMHLRQCGLF (cysteine pairing not given here) [peptide C1] as the binder, how does the Kd read?
Answer: 4.7 µM
